Molecular target: T1, Recombinant human LAG3-His (Sino Biological; catalogue No. 16498-H08H) (human, UniProt P18627 23-450)
T1 construct: also called human LAG3 His-tag protein; CD223
T1 sequence: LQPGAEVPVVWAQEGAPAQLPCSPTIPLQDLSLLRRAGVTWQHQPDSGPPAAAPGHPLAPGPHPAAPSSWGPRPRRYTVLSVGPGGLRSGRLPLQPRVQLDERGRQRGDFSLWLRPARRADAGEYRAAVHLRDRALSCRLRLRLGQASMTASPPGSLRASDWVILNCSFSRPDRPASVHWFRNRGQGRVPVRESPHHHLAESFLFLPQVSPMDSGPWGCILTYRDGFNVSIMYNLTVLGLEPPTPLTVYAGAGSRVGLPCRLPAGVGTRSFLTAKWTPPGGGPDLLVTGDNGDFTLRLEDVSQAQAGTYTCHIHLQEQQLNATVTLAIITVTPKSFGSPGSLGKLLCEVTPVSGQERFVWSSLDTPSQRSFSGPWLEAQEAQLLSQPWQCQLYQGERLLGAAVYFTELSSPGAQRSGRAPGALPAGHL
Test: ELISA: antibody coated at 5 µg/mL, soluble human LAG3-His titrated (x-axis: Human LAG3, µg/ml), OD at 450nm

B1: 2D12-2E3-N102D (antibody, V domains shown)
VH: EVQLVESGGGLVQPGRSLRLSCVASGDGMSDYDMHWVRQAPGKGLEWVSGIGWNSGTIDYADSVKGRFIISRDNAKNSLYLQMNSLRPEDTALYYCAKEILDYSWMSVYGMDVWGQGTTVTVSS
VL: DIQMTQSPSSLSASVGDRVTITCRASQNIGTYLNWYQQSPGKAPKLLIYGASSLHSGVPSRVSGSGSGTDFTLTINTLQPEDFATYFCQQSYNTPPTFGQGTKVEIK
notes: also called anti-LAG3 antibody 2D12-2E3-N102D
EC50 (read off the curve): ~0.04 mg/L

— patent US20230147852A1 (SORRENTO THERAPEUTICS, published 2023)
